Test results as given in article PMC3871824, “In vitro binding of Sorghum bicolor transcription factors ABI4 and ABI5 to a conserved region of a GA 2-OXIDASE promoter: possible role of this interaction in the expression of seed dormancy”.

Assays:
[1] = molecular target: T1, SbABI5 (rABI5) (Sorghum bicolor (inbred line IS9530), UniProt C5XSV4 1-346); assay: EMSA; four complexes; 25 mM Tris-HCl pH 7.4, 30 mM KCl, 3 mM MgCl2, 0.5 mM EDTA, 14 mM 2-mercaptoethanol, 1 mM DTT, 10% glycerol, 0.05% NP-40, 10 ug/ml BSA, 50 ug/ml salmon sperm DNA, 40 ng probe, 30 min, room temperature; conditions: protein: recombinant; tags: C-terminal His (pET24a); chain copies: 2; label: 5'-biotin on strand 1; blunt
T1 sequence: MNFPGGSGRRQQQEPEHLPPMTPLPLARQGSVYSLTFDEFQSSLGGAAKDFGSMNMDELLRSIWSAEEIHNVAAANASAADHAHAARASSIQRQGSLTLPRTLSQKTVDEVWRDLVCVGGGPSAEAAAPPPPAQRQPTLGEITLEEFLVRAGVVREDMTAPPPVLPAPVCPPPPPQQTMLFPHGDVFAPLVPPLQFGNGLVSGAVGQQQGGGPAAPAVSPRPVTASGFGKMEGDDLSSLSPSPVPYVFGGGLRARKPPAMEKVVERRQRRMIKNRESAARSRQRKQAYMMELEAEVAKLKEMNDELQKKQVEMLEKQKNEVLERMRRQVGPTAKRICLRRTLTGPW

[2] = molecular target: T2, SbABI4 (rABI4) (Sorghum bicolor (inbred line IS9530), UniProt A0A1B6P7N1 1-257); assay: EMSA; five complexes; 25 mM Tris-HCl pH 7.4, 30 mM KCl, 3 mM MgCl2, 0.5 mM EDTA, 14 mM 2-mercaptoethanol, 1 mM DTT, 10% glycerol, 0.05% NP-40, 10 ug/ml BSA, 50 ug/ml salmon sperm DNA, 40 ng probe, 30 min, room temperature; conditions: protein: recombinant; tags: C-terminal His (pET24a); label: 5'-biotin on strand 1; blunt
T2 sequence (A0A1B6P7N1 entry or part of it): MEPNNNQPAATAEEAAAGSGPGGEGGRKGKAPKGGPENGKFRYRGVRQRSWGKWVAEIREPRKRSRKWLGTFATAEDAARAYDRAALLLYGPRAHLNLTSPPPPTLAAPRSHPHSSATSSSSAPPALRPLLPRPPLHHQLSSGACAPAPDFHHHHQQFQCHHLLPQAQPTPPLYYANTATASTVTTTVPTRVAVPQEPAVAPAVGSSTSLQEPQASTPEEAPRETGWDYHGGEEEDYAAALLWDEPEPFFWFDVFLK

[3] = molecular target: T2, SbABI4 (rABI4); assay: EMSA; additional retarded complex; 25 mM Tris-HCl pH 7.4, 30 mM KCl, 3 mM MgCl2, 0.5 mM EDTA, 14 mM 2-mercaptoethanol, 1 mM DTT, 10% glycerol, 0.05% NP-40, 10 ug/ml BSA, 50 ug/ml salmon sperm DNA, 40 ng probe, 30 min, room temperature; conditions: protein: recombinant; tags: C-terminal His (pET24a); label: 5'-biotin on strand 1; blunt
[4] = molecular target: T1, SbABI5 (rABI5); assay: EMSA; 25 mM Tris-HCl pH 7.4, 30 mM KCl, 3 mM MgCl2, 0.5 mM EDTA, 14 mM 2-mercaptoethanol, 1 mM DTT, 10% glycerol, 0.05% NP-40, 10 ug/ml BSA, 50 ug/ml salmon sperm DNA, 40 ng probe, 30 min, room temperature; conditions: protein: recombinant; tags: C-terminal His (pET24a); chain copies: 2; label: 5'-biotin on strand 1; blunt
[5] = molecular target: T1, SbABI5 (rABI5); assay: competition; 200-600 ng vs 40 ng N1; no effect; 25 mM Tris-HCl pH 7.4, 30 mM KCl, 3 mM MgCl2, 0.5 mM EDTA, 14 mM 2-mercaptoethanol, 1 mM DTT, 10% glycerol, 0.05% NP-40, 10 ug/ml BSA, 50 ug/ml salmon sperm DNA, 40 ng probe, 30 min, room temperature; conditions: protein: recombinant; tags: C-terminal His (pET24a); chain copies: 2; blunt
[6] = molecular target: T2, SbABI4 (rABI4); assay: as above; conditions: protein: recombinant; tags: C-terminal His (pET24a); blunt

B1: AtEm6 promoter probe 186 bp (dsDNA)
DNA 1: AGTTAAAGAACACGCGGCGAAGAAGTACGGCCACTACCACGTTCAAAGTATACGTCAGCTAATAAAGTCAGACACGTGGCATGTCACCAAGAAAGAAGAGCATACGTATGACGTACCGATTGTCCCTGAGTCACCACGTCGAACATCCACGATGCAACACAACCAAAACGCCCTCCGGATTGA
DNA 2: TCAATCCGGAGGGCGTTTTGGTTGTGTTGCATCGTGGATGTTCGACGTGGTGACTCAGGGACAATCGGTACGTCATACGTATGCTCTTCTTTCTTGGTGACATGCCACGTGTCTGACTTTATTAGCTGACGTATACTTTGAACGTGGTAGTGGCCGTACTTCTTCGCCGCGTGTTCTTTAACT
**Q.** Does B1 bind [1]?
**A.** binds

**Q.** Does B1 bind [2]?
**A.** binds

B2: SbGA2ox3 probe a (intact ABRE and CE) (dsDNA)
DNA 1: GGGCGCCGTGGGAAAACTGCTATTGGCCGGCGTGCCATCGCCTCGTATCGTATGCGTCTCCCATGGAGCCATGCATGCAGCGCGGCGGGCCGACCTGCCACCGGTGGATCGCGTCCGGACACGTCGCGCCC
DNA 2: GGGCGCGACGTGTCCGGACGCGATCCACCGGTGGCAGGTCGGCCCGCCGCGCTGCATGCATGGCTCCATGGGAGACGCATACGATACGAGGCGATGGCACGCCGGCCAATAGCAGTTTTCCCACGGCGCCC
**Q.** What does the source list for B2?
**A.** binding result [3]: binds; binding result [4]: binds

B3: SbGAMyb non-specific competitor 183 bp (dsDNA)
DNA 1: TCTGGGAAGAACCAACAACCATCGGTCCGAAGTTCAAGTTCTTCTGCTGGCACACCTTGTGAGACTACTACGGTGGTTAGCCCAGAGTTTGATATGGGCCAGGAATATTGGGAAGAACAGCCTGGTTCTTTCCTCAGTGAATATGCTCATTTTAGTGGAAATTCTTTGACCGAATCCACTCCT
DNA 2: AGGAGTGGATTCGGTCAAAGAATTTCCACTAAAATGAGCATATTCACTGAGGAAAGAACCAGGCTGTTCTTCCCAATATTCCTGGCCCATATCAAACTCTGGGCTAACCACCGTAGTAGTCTCACAAGGTGTGCCAGCAGAAGAACTTGAACTTCGGACCGATGGTTGTTGGTTCTTCCCAGA
**Q.** Which results are given for B3?
**A.** binding result [5]: no binding; binding result [6]: no binding
